This is an account of results in US20140120058A1, “POLYMER CONJUGATED PROSTAGLANDIN ANALOGUES” (POLYACTIVA PTY LTD, priority 2011, published 2014).

This data set can be described thus: In vitro drug release from melt-extruded rods in isotonic phosphate buffer. Format: physicochemical. To be noted: rod-shaped samples, isotonic phosphate buffer pH 7.4, 37° C.; for Release Rate (ng of free acid Latanoprost/mg polymer drug conjugate/24 hours): continuous stirring, HPLC-UV. The protocol: Following in vitro release guidelines recommended by the International Organisation of Standardisation, rod-shaped samples prepared by melt extrusion, were suspended in wire baskets which were immersed in isotonic phosphate buffer (IPB), adjusted to pH 7.4 using orthophosphoric acid and containing 0.01% sodium azide as a preservative, and incubated at 37° C. with continuous stirring. Aliquots of the receptor solution were removed for analysis at predetermined time points until drug release from the polymer no longer increased.
The amount of prostaglandin drug released from the rods at the various time points was quantified by reverse phase high performance liquid chromatography (HPLC) with a UV absorbance detector and analyte separation was performed on a C18 column either isocratically or with a gradient system using a degassed mobile phase.
Using the above method, the rate of release of the prostaglandin drug latanoprost from various polymer-drug conjugates was determined.

On to “Polyurethane of (Z)-1,3-dihydroxypropan-2-yl 7-((1R,2R,3R,5S)-3,5-dihydroxy-2-((R)-3-hydroxy-5-phenylpentyl)cyclopentyl)hept-5-enoate and DVDIP [Example 12]”, for which the “Period of zero-order release” value worked out at 61 days and the “Release Rate (ng of free acid Latanoprost/mg polymer drug conjugate/24 hours)” value was 637 ng of free acid Latanoprost/mg.
For “Polyurethane of (Z)-1,3-dihydroxypropan-2-yl 7-((1R,2R,3R,5S)-3,5-dihydroxy-2-((R)-3-hydroxy-5-phenylpentyl)cyclopentyl)hept-5-enoate and ELDI [Example 10]” the same measures were 61 days and 899 ng of free acid Latanoprost/mg.
Take “Polyurethane of (Z)-3-hydroxy-2-(hydroxymethyl)-2-methylpropyl 7-((1R,2R,3R,5S)-3,5-dihydroxy-2-((R)-3-hydroxy-5-phenylpentyl)cyclopentyl)hept-5-enoate and DVDIP [Example 16]”: the “Period of zero-order release” value turned out to be 61 days and the “Release Rate (ng of free acid Latanoprost/mg polymer drug conjugate/24 hours)” value is 138 ng of free acid Latanoprost/mg.
